B1: cystatin F in human plasma (natural protein, human (endogenous in plasma), UniProt O76096 20-145, looked up)
chain: GPSPDTCSQDLNSRVKPGFPKTIKTNDPGVLQAARYSVEKFNNCTNDMFLFKESRITRALVQIVKGLKYMLEVEIGRTTCKKNQHLRLDDCDFQTNHTLKQTLSCYSEVWVVPWLQHFEVPVLRCH
notes: cystatin F, secreted form in plasma; also called secreted cystatin F; cystatin F dimer; source: endogenous, human plasma (AD patients and controls)
B2: native cystatin F in cultured monocytes (natural protein, UniProt O76096 20-145, looked up)
chain: B1 chain
notes: cystatin F of cultured monocytes; also called intracellular cystatin F protein; extracellular proteins; source: endogenous, cultured monocytes (intracellular and extracellular)

Biological target: the molecule itself
Experiment: native gel or EMSA; nondenaturing gel (loading buffer without DTT) and western blot with anti-cystatin F; plasma diluted in PBS, or cultured monocytes

Protein | stoichiometry N
B1 | 2
B2 | 2

From publication PMC11088181, “Monocytes release cystatin F dimer to associate with Aβ and aggravate amyloid pathology and cognitive deficits in Alzheimer’s disease” (Journal of Neuroinflammation, 2024)
